Reference: patent WO2020219978A1 (dated 2020)

Key:
[1] = molecular target: T1, human BCMA (hu-BCMA), as used in SPR (human, UniProt Q02223 1-54); experiment: SPR
T1 construct: The construct used in SPR is not described; also called B cell maturation antigen; TNFRSF17
T1 sequence: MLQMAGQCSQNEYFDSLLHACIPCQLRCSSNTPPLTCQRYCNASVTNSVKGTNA

mouse BCMA = molecular target: T2, mouse BCMA (mouse, UniProt O88472 1-49, limits assumed); experiment: SPR
T2 construct: also called rodent BCMA
T2 chain (looked up): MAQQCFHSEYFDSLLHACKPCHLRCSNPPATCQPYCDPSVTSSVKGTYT

[2] = molecular target: T1, human BCMA (hu-BCMA), as used in SPR; experiment: SPR, mean (n = 3 by paragraph 97)
BCMA/Fc = molecular target: T3, BCMA/Fc (human, UniProt Q02223 1-54); experiment: flow cytometry blocking experiment on U266 cells; soluble BCMA/Fc against BCMA on the cells
T3 construct: not shown: Fc part not described
T3 sequence: T1 sequence

[3] = molecular target: T4, human cluster of differentiation 3 epsilon/delta heterodimer (CD3ed) (human, UniProt P04234 22-105); experiment: SPR (n = 3 by paragraph 97)
T4 construct: also called human CD3ed heterodimer
T4 sequence (chain, as listed by the source mutant, chain 1 of 2): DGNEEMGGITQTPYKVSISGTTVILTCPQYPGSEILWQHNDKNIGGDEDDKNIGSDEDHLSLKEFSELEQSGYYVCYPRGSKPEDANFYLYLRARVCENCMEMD
T4 sequence (P04234 22-105, stated change not applied, chain 2 of 2): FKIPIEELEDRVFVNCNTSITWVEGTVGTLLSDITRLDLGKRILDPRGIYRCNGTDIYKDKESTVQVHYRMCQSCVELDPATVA

[4] = molecular target: human CD3 epsilon (CD3ɛ), form of the assay not stated (human, UniProt P07766 23-126, limits assumed); experiment: not stated (description)
Chain of human CD3 epsilon (CD3ɛ), form of the assay not stated (P07766 23-126 limits assumed): as the sequence (chain, as listed by the source mutant, chain 1 of 2) above

[5] = molecular target: T1, human BCMA (hu-BCMA), as used in SPR; experiment: not stated (description)
CD3 on Jurkat cells [6] = molecular target: T5, CD3 on Jurkat cells (human, UniProt P07766 23-207); experiment: flow cytometry on Jurkat cells
T5 construct: also called CD3 on T cell lines
T5 sequence (P07766 23-207 limits assumed): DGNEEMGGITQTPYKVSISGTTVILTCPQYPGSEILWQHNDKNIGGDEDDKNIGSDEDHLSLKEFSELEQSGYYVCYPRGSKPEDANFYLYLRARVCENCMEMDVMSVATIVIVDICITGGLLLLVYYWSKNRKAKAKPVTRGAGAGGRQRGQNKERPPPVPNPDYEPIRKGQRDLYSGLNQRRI

[7] = molecular target: T6, human BCMA on cells (NCI-H929, L363, JJN-3, RPMI-8226, U266 myeloma cell lines; HEK293T-huBCMA) (human, UniProt Q02223 1-184); experiment: flow cytometry on NCI-H929 MM cells, 3 lots
T6 construct: also called BCMA on myeloma cell lines
T6 sequence: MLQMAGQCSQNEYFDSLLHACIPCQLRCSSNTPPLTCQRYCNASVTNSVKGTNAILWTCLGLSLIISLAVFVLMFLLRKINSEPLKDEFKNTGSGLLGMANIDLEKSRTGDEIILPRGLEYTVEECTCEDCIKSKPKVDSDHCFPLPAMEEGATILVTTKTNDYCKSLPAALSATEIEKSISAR

CD3 on Jurkat cells [8] = molecular target: T5, CD3 on Jurkat cells; experiment: flow cytometry on Jurkat cells, second study

B1: BCMA binder of CC-93269 (anti-BCMA IgG and Fab fragment of clone 83A10-42) (antibody, V domains shown)
VH: EVQLLESGGGLVQPGGSLRLSCAASGFTFSDNAMGWVRQAPGKGLEWVSAISGPGSSTYYADSVKGRFTISRDNSKNTLYLQMNSLRAEDTAVYYCAKVLGWFDYWGQGTLVTVSS
VL: EIVLTQSPGTLSLSPGERATLSCRASQSVSDEYLSWYQQKPGQAPRLLIHSASTRATGIPDRFSGSGSGTDFTLAISRLEPEDFAVYYCQQYGYPPDFTFGQGTKVEIK
In the case of B1, the Kd [1] is reported as 0.203 to 0.45 nM, the binding result (mouse BCMA) is reported as “binds” and the Kd [2] is reported as 0.431 nM.

B2: phycoerythrin (PE)-conjugated BCMA binder (Clone 83A10-42) of CC-93269 (antibody, V domains shown)
VH: B1 VH
VL: B1 VL
modifications: phycoerythrin (PE)-conjugated; site not stated
notes: also called PE-conjugated 83A10-42
B2: binds (BCMA/Fc).

B3: CC-93269, bispecific trivalent anti-BCMA/anti-CD3 T cell engaging antibody (TCE) (bispecific antibody, human IgG1, kappa, L234A L235A)
heavy 1: not shown
heavy 2: EVQLLESGGGLVQPGGSLRLSCAASGFTFSDNAMGWVRQAPGKGLEWVSAISGPGSSTYYADSVKGRFTISRDNSKNTLYLQMNSLRAEDTAVYYCAKVLGWFDYWGQGTLVTVSSASTKGPSVFPLAPSSKSTSGGTAALGCLVEDYFPEPVTVSWNSGALTSGVHTFPAVLQSSGLYSLSSVVTVPSSSLGTQTYICNVNHKPSNTKVDEKVEPKSCDKTHTCPPCPAPEAAGGPSVFLFPPKPKDTLMISRTPEVTCVVVDVSHEDPEVKFNWYVDGVEVHNAKTKPREEQYNSTYRVVSVLTVLHQDWLNGKEYKCKVSNKALGAPIEKTISKAKGQPREPQVCTLPPSRDELTKNQVSLSCAVKGFYPSDIAVEWESNGQPENNYKTTPPVLDSDGSFFLVSKLTVDKSRWQQGNVFSCSVMHEALHNHYTQKSLSLSPGK
light 1: EVQLLESGGGLVQPGGSLRLSCAASGFTFSTYAMNWVRQAPGKGLEWVSRIRSKYNNYATYYADSVKGRFTISRDDSKNTLYLQMNSLRAEDTAVYYCVRHGNFGNSYVSWFAYWGQGTLVTVSSASVAAPSVFIFPPSDEQLKSGTASVVCLLNNFYPREAKVQWKVDNALQSGNSQESVTEQDSKDSTYSLSSTLTLSKADYEKHKVYACEVTHQGLSSPVTKSFNRGEC
light 2: EIVLTQSPGTLSLSPGERATLSCRASQSVSDEYLSWYQQKPGQAPRLLIHSASTRATGIPDRFSGSGSGTDFTLAISRLEPEDFAVYYCQQYGYPPDFTFGQGTKVEIKRTVAAPSVFIFPPSDRKLKSGTASVVCLLNNFYPREAKVQWKVDNALQSGNSQESVTEQDSKDSTYSLSSTLTLSKADYEKHKVYACEVTHQGLSSPVTKSFNRGEC
With B3 the “fold higher affinity than to rodent BCMA” value [1] was about 10 fold, the Kd [3] was 25 nM and the Kd [4] was 24 to 28 nM. For the same binder, the Kd [5] was about 0.3 nM, the EC50 (CD3 on Jurkat cells [6]) was 16.8 to 37.4 nM and the EC50 [7] was 1.7 to 2.8 nM. It also gave an EC50 (CD3 on Jurkat cells [8]) of 121 nM.
